We go through 16 molecules from US20240240209A1, “SYNTHESIS OF ENANTIOPURE CIS-A-IRONE FROM A RENEWABLE CARBON SOURCE” (Agency for Science, Technology and Research, priority 2021, published 2024).

Sequences and labels used below:
B1: pMT1_E153V: pMT1 with E153V (protein)
chain: MPQEARTPQQQVTADEVGDWYDKFGEVYHLTLGESVHCGLWFPPDAPVPQDMELVTMSSQAQDRYTDYLIETLDPKAGQHLLDIGCGTGRTALKAARQRGIAVTGVAVSKEQIAAANRLAAGHGLTERLTFEVADAMRLPYEDESFDCAWAIVSLCHMDRAKALGEAWRVLKPGGDLLVLESVVTEELTEPETALFETLYAANVPPRLGEFFDIVSGAGFHTLSLKDLSANLAMTMNVFALGVYSRRAEFTERFGAEFVDGLLAGLGSAQETLIRKTRFFMATLRKPAV
B2: pMT1_E153W: pMT1 with E153W (protein)
chain: MPQEARTPQQQVTADEVGDWYDKFGEVYHLTLGESVHCGLWFPPDAPVPQDMELVTMSSQAQDRYTDYLIETLDPKAGQHLLDIGCGTGRTALKAARQRGIAVTGVAVSKEQIAAANRLAAGHGLTERLTFEVADAMRLPYEDESFDCAWAIWSLCHMDRAKALGEAWRVLKPGGDLLVLESVVTEELTEPETALFETLYAANVPPRLGEFFDIVSGAGFHTLSLKDLSANLAMTMNVFALGVYSRRAEFTERFGAEFVDGLLAGLGSAQETLIRKTRFFMATLRKPAV
B3: pMT1_E153T: pMT1 with E153T (protein)
chain: MPQEARTPQQQVTADEVGDWYDKFGEVYHLTLGESVHCGLWFPPDAPVPQDMELVTMSSQAQDRYTDYLIETLDPKAGQHLLDIGCGTGRTALKAARQRGIAVTGVAVSKEQIAAANRLAAGHGLTERLTFEVADAMRLPYEDESFDCAWAITSLCHMDRAKALGEAWRVLKPGGDLLVLESVVTEELTEPETALFETLYAANVPPRLGEFFDIVSGAGFHTLSLKDLSANLAMTMNVFALGVYSRRAEFTERFGAEFVDGLLAGLGSAQETLIRKTRFFMATLRKPAV
B4: pMT1_E153Y: pMT1 with E153Y (protein)
chain: MPQEARTPQQQVTADEVGDWYDKFGEVYHLTLGESVHCGLWFPPDAPVPQDMELVTMSSQAQDRYTDYLIETLDPKAGQHLLDIGCGTGRTALKAARQRGIAVTGVAVSKEQIAAANRLAAGHGLTERLTFEVADAMRLPYEDESFDCAWAIYSLCHMDRAKALGEAWRVLKPGGDLLVLESVVTEELTEPETALFETLYAANVPPRLGEFFDIVSGAGFHTLSLKDLSANLAMTMNVFALGVYSRRAEFTERFGAEFVDGLLAGLGSAQETLIRKTRFFMATLRKPAV
B5: pMT1_M236T: pMT1 with M236T (protein)
chain: MPQEARTPQQQVTADEVGDWYDKFGEVYHLTLGESVHCGLWFPPDAPVPQDMELVTMSSQAQDRYTDYLIETLDPKAGQHLLDIGCGTGRTALKAARQRGIAVTGVAVSKEQIAAANRLAAGHGLTERLTFEVADAMRLPYEDESFDCAWAIESLCHMDRAKALGEAWRVLKPGGDLLVLESVVTEELTEPETALFETLYAANVPPRLGEFFDIVSGAGFHTLSLKDLSANLAMTTNVFALGVYSRRAEFTERFGAEFVDGLLAGLGSAQETLIRKTRFFMATLRKPAV
B6: pMT1_M236V (protein)
chain: MPQEARTPQQQVTADEVGDWYDKFGEVYHLTLGESVHCGLWFPPDAPVPQDMELVTMSSQAQDRYTDYLIETLDPKAGQHLLDIGCGTGRTALKAARQRGIAVTGVAVSKEQIAAANRLAAGHGLTERLTFEVADAMRLPYEDESFDCAWAIESLCHMDRAKALGEAWRVLKPGGDLLVLESVVTEELTEPETALFETLYAANVPPRLGEFFDIVSGAGFHTLSLKDLSANLAMTVNVFALGVYSRRAEFTERFGAEFVDGLLAGLGSAQETLIRKTRFFMATLRKPAV
B7: pMT1_M236Y: pMT1 with M236Y (protein)
chain: MPQEARTPQQQVTADEVGDWYDKFGEVYHLTLGESVHCGLWFPPDAPVPQDMELVTMSSQAQDRYTDYLIETLDPKAGQHLLDIGCGTGRTALKAARQRGIAVTGVAVSKEQIAAANRLAAGHGLTERLTFEVADAMRLPYEDESFDCAWAIESLCHMDRAKALGEAWRVLKPGGDLLVLESVVTEELTEPETALFETLYAANVPPRLGEFFDIVSGAGFHTLSLKDLSANLAMTYNVFALGVYSRRAEFTERFGAEFVDGLLAGLGSAQETLIRKTRFFMATLRKPAV
B8: pMT1_M236W: pMT1 with M236W (protein)
chain: MPQEARTPQQQVTADEVGDWYDKFGEVYHLTLGESVHCGLWFPPDAPVPQDMELVTMSSQAQDRYTDYLIETLDPKAGQHLLDIGCGTGRTALKAARQRGIAVTGVAVSKEQIAAANRLAAGHGLTERLTFEVADAMRLPYEDESFDCAWAIESLCHMDRAKALGEAWRVLKPGGDLLVLESVVTEELTEPETALFETLYAANVPPRLGEFFDIVSGAGFHTLSLKDLSANLAMTWNVFALGVYSRRAEFTERFGAEFVDGLLAGLGSAQETLIRKTRFFMATLRKPAV
B9: pMT1_R160A: pMT1 with R160A (protein)
chain: MPQEARTPQQQVTADEVGDWYDKFGEVYHLTLGESVHCGLWFPPDAPVPQDMELVTMSSQAQDRYTDYLIETLDPKAGQHLLDIGCGTGRTALKAARQRGIAVTGVAVSKEQIAAANRLAAGHGLTERLTFEVADAMRLPYEDESFDCAWAIESLCHMDAAKALGEAWRVLKPGGDLLVLESVVTEELTEPETALFETLYAANVPPRLGEFFDIVSGAGFHTLSLKDLSANLAMTMNVFALGVYSRRAEFTERFGAEFVDGLLAGLGSAQETLIRKTRFFMATLRKPAV
B10: pMT1_R160W: pMT1 with R160W (protein)
chain: MPQEARTPQQQVTADEVGDWYDKFGEVYHLTLGESVHCGLWFPPDAPVPQDMELVTMSSQAQDRYTDYLIETLDPKAGQHLLDIGCGTGRTALKAARQRGIAVTGVAVSKEQIAAANRLAAGHGLTERLTFEVADAMRLPYEDESFDCAWAIESLCHMDWAKALGEAWRVLKPGGDLLVLESVVTEELTEPETALFETLYAANVPPRLGEFFDIVSGAGFHTLSLKDLSANLAMTMNVFALGVYSRRAEFTERFGAEFVDGLLAGLGSAQETLIRKTRFFMATLRKPAV
B11: pMT1_R160V: pMT1 with R160V (protein)
chain: MPQEARTPQQQVTADEVGDWYDKFGEVYHLTLGESVHCGLWFPPDAPVPQDMELVTMSSQAQDRYTDYLIETLDPKAGQHLLDIGCGTGRTALKAARQRGIAVTGVAVSKEQIAAANRLAAGHGLTERLTFEVADAMRLPYEDESFDCAWAIESLCHMDVAKALGEAWRVLKPGGDLLVLESVVTEELTEPETALFETLYAANVPPRLGEFFDIVSGAGFHTLSLKDLSANLAMTMNVFALGVYSRRAEFTERFGAEFVDGLLAGLGSAQETLIRKTRFFMATLRKPAV
B12: pMT1_R160Y (protein)
chain: MPQEARTPQQQVTADEVGDWYDKFGEVYHLTLGESVHCGLWFPPDAPVPQDMELVTMSSQAQDRYTDYLIETLDPKAGQHLLDIGCGTGRTALKAARQRGIAVTGVAVSKEQIAAANRLAAGHGLTERLTFEVADAMRLPYEDESFDCAWAIESLCHMDYAKALGEAWRVLKPGGDLLVLESVVTEELTEPETALFETLYAANVPPRLGEFFDIVSGAGFHTLSLKDLSANLAMTMNVFALGVYSRRAEFTERFGAEFVDGLLAGLGSAQETLIRKTRFFMATLRKPAV
B13: pMT1_S182T: pMT1 with S182T (protein)
chain: MPQEARTPQQQVTADEVGDWYDKFGEVYHLTLGESVHCGLWFPPDAPVPQDMELVTMSSQAQDRYTDYLIETLDPKAGQHLLDIGCGTGRTALKAARQRGIAVTGVAVSKEQIAAANRLAAGHGLTERLTFEVADAMRLPYEDESFDCAWAIESLCHMDRAKALGEAWRVLKPGGDLLVLETVVTEELTEPETALFETLYAANVPPRLGEFFDIVSGAGFHTLSLKDLSANLAMTMNVFALGVYSRRAEFTERFGAEFVDGLLAGLGSAQETLIRKTRFFMATLRKPAV
B14: pMT1_Y200W: pMT1 with Y200W (protein)
chain: MPQEARTPQQQVTADEVGDWYDKFGEVYHLTLGESVHCGLWFPPDAPVPQDMELVTMSSQAQDRYTDYLIETLDPKAGQHLLDIGCGTGRTALKAARQRGIAVTGVAVSKEQIAAANRLAAGHGLTERLTFEVADAMRLPYEDESFDCAWAIESLCHMDRAKALGEAWRVLKPGGDLLVLESVVTEELTEPETALFETLWAANVPPRLGEFFDIVSGAGFHTLSLKDLSANLAMTMNVFALGVYSRRAEFTERFGAEFVDGLLAGLGSAQETLIRKTRFFMATLRKPAV
B15: pMT1_Y200A: pMT1 with Y200A (protein)
chain: MPQEARTPQQQVTADEVGDWYDKFGEVYHLTLGESVHCGLWFPPDAPVPQDMELVTMSSQAQDRYTDYLIETLDPKAGQHLLDIGCGTGRTALKAARQRGIAVTGVAVSKEQIAAANRLAAGHGLTERLTFEVADAMRLPYEDESFDCAWAIESLCHMDRAKALGEAWRVLKPGGDLLVLESVVTEELTEPETALFETLAAANVPPRLGEFFDIVSGAGFHTLSLKDLSANLAMTMNVFALGVYSRRAEFTERFGAEFVDGLLAGLGSAQETLIRKTRFFMATLRKPAV
B16: pMT1_Y200V: pMT1 with Y200V (protein)
chain: MPQEARTPQQQVTADEVGDWYDKFGEVYHLTLGESVHCGLWFPPDAPVPQDMELVTMSSQAQDRYTDYLIETLDPKAGQHLLDIGCGTGRTALKAARQRGIAVTGVAVSKEQIAAANRLAAGHGLTERLTFEVADAMRLPYEDESFDCAWAIESLCHMDRAKALGEAWRVLKPGGDLLVLESVVTEELTEPETALFETLVAANVPPRLGEFFDIVSGAGFHTLSLKDLSANLAMTMNVFALGVYSRRAEFTERFGAEFVDGLLAGLGSAQETLIRKTRFFMATLRKPAV

A short description of the first assay: Cell lysate reaction of pMT enzymes with psi-ionone, irones quantified by HS-SPME-GCMS. It is filed as biochemical. The following applies: pMT1_E153 mutants; AUC vs non-mutated (=1). The method, boiled down: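 pMT1 site-saturation mutants were expressed in E. coli BL21(DE3) and lysed, and lysates were incubated 2 days at 28 °C with 0.2 mM SAM and 10 mg/L psi-ionone (plus caryophyllene) in 50 mM Tris pH 7, 10 mM MgCl2. Cis-α-irone was measured by HS-SPME-GCMS peak area and given as fold change over non-mutated enzyme.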
Turning to B1, the “fold change in cis-α-irone produced” value came out at 0.0. With B2, the “fold change in cis-α-irone produced” value stood at 0.0. Turning to B3, the “fold change in cis-α-irone produced” value worked out at 0.0. As for B4, the “fold change in cis-α-irone produced” value was 0.0.

Still in this assay, the particulars now being: pMT1_M236 mutants; AUC vs non-mutated (=1).
Regarding B5, the “fold change in cis-α-irone produced” value is 1.7.

B6: the “fold change in cis-α-irone produced” value came out at 0.7. In the case of B7, the “fold change in cis-α-irone produced” value turned out to be 0.0.

For the molecule B8, the “fold change in cis-α-irone produced” value is 0.2.

Staying with this assay, now noted: pMT1_R160 mutants; AUC vs non-mutated (=1).
Turning to B9, the “fold change in cis-α-irone produced” value stood at 1.7.

B10: the “fold change in cis-α-irone produced” value is recorded as 0.7.

Consider B11, for which the “fold change in cis-α-irone produced” value is on record as 1.5. In the case of B12, the “fold change in cis-α-irone produced” value worked out at 1.3.

The assay is the same for the next values; noted with them: pMT1_S182 mutants; AUC vs non-mutated (=1).
For the molecule B13, the “fold change in cis-α-irone produced” value is on record as 0.23.

The same assay, now with this note: pMT1_Y200 mutants; AUC vs non-mutated (=1).
For B14, the “fold change in cis-α-irone produced” value is recorded as 2.1. In the case of B15, the “fold change in cis-α-irone produced” value is 0.2. For B16, the “fold change in cis-α-irone produced” value was determined as 1.1.
